Results published in US20080267976A1 (published 2008).

Biological target: extracellular region of human V158 FcγRIIIa fused with glutathione S-Transferase (GST) (human;, UniProt P08637 17-208)
Experiment: competition AlphaScreen

extracellular region of human V158 FcγRIIIa fused with glutathione S-Transferase (GST), sequence (P08637 17-208 F176V): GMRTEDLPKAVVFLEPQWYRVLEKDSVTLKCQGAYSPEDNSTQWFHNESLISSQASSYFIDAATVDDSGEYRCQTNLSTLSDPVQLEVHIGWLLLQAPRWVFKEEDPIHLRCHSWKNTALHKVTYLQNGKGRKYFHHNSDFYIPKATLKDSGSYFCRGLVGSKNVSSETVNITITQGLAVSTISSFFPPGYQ

B1: H3.69_V2/L3.71 AC10 IgG(1/2) ELLGG antibody (XmAb2513) (antibody)
heavy: QVQLVQSGAEVKKPGASVKVSCKVSGYTFTDYYITWVRQAPGQALEWMGWIYPGSGNTKYSQKFQGRFVFSVDTSASTAYLQISSLKAEDTAVYYCANYGNYWFAYWGQGTLVTVSSASTKGPSVFPLAPSSKSTSGGTAALGCLVKDYFPEPVTVSWNSGALTSGVHTFPAVLQSSGLYSLSSVVTVPSSSLGTQTYICNVNHKPSNTKVDKKVEPKSCDKTHTCPPCPAPELLGGPDVFLFPPKPKDTLMISRTPEVTCVVVDVSHEDPEVQFNWYVDGVEVHNAKTKPREEQFNSTFRVVSVLTVVHQDWLNGKEYKCKVSNKALPAPEEKTISKTKGQPREPQVYTLPPSREEMTKNQVSLTCLVKGFYPSDIAVEWESNGQPENNYKTTPPMLDSDGSFFLYSKLTVDKSRWQQGNVFSCSVMHEALHNHYTQKSLSLSPGK
light: EIVLTQSPDSLAVSLGERATINCKASQSVDFDGDSYLNWYQQKPGQPPKVLIYAASTLQSGVPSRFSGSGSGTDFTLTINSLEAEDAATYYCQQSNEDPWTFGGGTKVEIKRTVAAPSVFIFPPSDEQLKSGTASVVCLLNNFYPREAKVQWKVDNALQSGNSQESVTEQDSKDSTYSLSSTLTLSKADYEKHKVYACEVTHQGLSSPVTKSFNRGEC
IC50: 38 nM
